Assay results reported in US20260184768A1 (Regeneron, published 2026).

T1: PcrV (aa136-257).6xhis (Pseudomonas aeruginosa)
T1 chain: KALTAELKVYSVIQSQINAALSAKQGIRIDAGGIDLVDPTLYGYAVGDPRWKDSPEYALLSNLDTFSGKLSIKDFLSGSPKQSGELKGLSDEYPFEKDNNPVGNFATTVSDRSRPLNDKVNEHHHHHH

B1: H1H29329P (antibody, V domains shown)
VH: EVQLVESGGGLVQPGGSLRLSCAASGFTFSDHEMNWVRQAPGKGLEWISYIGSGVVTMYYADSVRGRFTISRDNAKKTLYLQMNSLRAEDTAVYYCARDRGYYFGSEAFHYWGQGTLVTVSS
VL: DIQMTQSPSTLSASVGDRVTITCRASQSISNWLAWYQQKPGKAPKLLIYKSSSLESGVPSRFSGSGSGTEFTLTISSLQPDDFATYYCQQYKSYSLTFGGGTKVEIKR
B2: REGN3514 (antibody, V domains shown)
VH: EMQLLESGGGLVQPGGSLRLSCAASGFTFSSYAMNWVRQAPGEGLEWVSAITISGITAYYTDSVKGRFTISRDNSKNTLYLQMNSLRAGDTAVYYCAKEEFLPGTHYYYGMDVWGQGTTVTVSS
VL: AIQMTQSPSSLSASVGDRVTITCRASQGIRNDLGWYQQKPGKAPKLVIYSASTLQSGVPSRFSGSGSGTDFTLSISSLQPDDFATYYCLQDYNYPWTFGQGTKVEIKR
notes: also called Control I; Control I-REGN3514
B3: H1H29332P (antibody, V domains shown)
VH: EVQLVESGGDLVQPGGSLRLSCKASGFTFSTFAMNWVRQAPGRGLEWVSAIGASGYSTYYVDSMKGRFTISRDNSKNTLYLQMNSLGAEDTAVYYCAKEYSVSSNYYYGMDVWGQGTTVTVSS
VL: DIQMTQSPSSLSASVGDRVTITCRASQTIRRYLNWYQQKAGKAPKLLIYAASSLLSGVPSRFSASGSGTDFTLTISSLQPEDFSTYYCQQTYSIPITFGQGTRLEIKR
B4: H1H29336P (antibody, V domains shown)
VH: EVQLVESGGGLVQPGGSLRLSCAASGFTFSSYAMTWVRQAPGKGLEWVSSIRGSGYSSDYADSVKGRFTISRDNSENTVYLQMNRLRAEDTAVYYCAKERSVTAYYYYGMDVWGQGTTVTVSS
VL: DIQLTQSPSFLSASVGDRVTITCWASQDISSFLTWYQQKPGIAPKLLIYTASTLQSGVPSRFSGSGSGTEFTLTISSLQPEDFATYYCQQLKSYPLTFGGGTKVEIKR
B5: H1H29339P (antibody, V domains shown)
VH: EVQLVESGGDLVQPGGSLRLSCAASGFTFNTYAMNWVRQAPGKGLEWVAVIGGSGYSTNYADSVKGRFTISRDNSKNTLYLQMNSLRTEDTAVYYCAKEGNIVALYWYFDLWGRGTLVTVSS
VL: DIQMTQSPSSLSASVGDRVTITCRASQSISRYLNWYQQKPGKAPKLLIYAASSLQGGVPSKFSGSGSGTDFTLTISSLQPEDFATYYCQQSSTTPLTFGGGTKVEIKR
B6: REGN3977 (antibody, V domains shown)
VH: QVQLKQSGPGLVQPSQSLSITCTVSGFSLTSYGVHWVRQSPGKGLEWLGVIWSGGDTDYNAAFISRLSISKDNSKSQLFFKMNSLRATDTAIYYCARNRGDIYYDFTYAMDYWGQGTSVTVSS
VL: DIQMTQSPASLSASVGETVTITCRASGNIQNYLAWYQQTQGKSPQLLVYSAKTLADGVPSRFSGSGSGTQYSLKINSLQPEDFGSYYCQHFWSTPYTFGGGTKLEIKR
notes: also called Control III; REGN3977-Control III

Tests used:
[1] = target: T2, PcrV of P. aeruginosa strain 6077 (Pseudomonas aeruginosa strain 6077); assay: cell-based or functional assay
[2] = target: T3, PcrV of P. aeruginosa strain ATCC 700888 (Pseudomonas aeruginosa strain ATCC …); assay: cell-based or functional assay
[3] = target: T2, PcrV of P. aeruginosa strain 6077; assay: cell-based or functional assay; remark: listed apart in the source
[4] = target: T3, PcrV of P. aeruginosa strain ATCC 700888; assay: cell-based or functional assay; remark: listed apart in the source
[5] = target: T4, recombinant full-length P. aeruginosa PcrV (Pseudomonas aeruginosa); assay: ELISA, PcrV coated on plate, chemiluminescence
T4 construct: Coated on ELISA plates; also called Full length PcrV; Full length PerV
Protocol: (§1) Anti-PcrV monoclonal antibodies (mAbs) were assessed by ELISA for their ability to bind to recombinant PcrV proteins. […] The following morning, plates were washed three times with wash buffer (Imidazole buffered saline with Tween-20) and blocked for 1.5 hours at 25° C. with 200 μl of blocking buffer (3% BSA in PBS). […] Wells were washed three times and then incubated with 100 ng/ml anti-human HRP secondary antibody per well for one hour at 25° C. 100 μl of SuperSignal™ ELISA Pico Chemiluminescent Substrate was added to each well and signal was detected (Victor X3 plate reader, Perkin Elmer). Luminescence values were analyzed by a four-parameter logistic equation over a 10-point response curve (GraphPad Prism).

[6] = target: PcrV 136-233 (Pseudomonas aeruginosa); assay: ELISA, PcrV coated on plate, chemiluminescence
Protocol: as §1

[7] = target: T5, full-length PcrV.6xhis (Pseudomonas aeruginosa); assay: SPR (Biacore T200), mAb captured via anti-human Fc, PcrV injected, 25 C
T5 construct: Recombinant full-length V-tip protein of the type 3 secretion system, His-tagged; also called full-length PcrV with a C-terminal hexahistidine tag
Protocol: (§2) The equilibrium dissociation constant (KD) for different PcrV reagents binding to purified anti-PcrV monoclonal antibodies were determined using a real-time surface plasmon resonance based Biacore T200 biosensor. All binding studies were performed in 10 mM HEPES, 150 mM NaCl, 3.4 mM EDTA and 0.05% v/v Tween-20, pH 7.4 (HBS-EP) running buffer at 25° C. and 37° C. […] Proteins were injected over the captured anti-PcrV monoclonal antibody surface for 4 minutes at a flow rate of 50 μL/minute, while the dissociation of monoclonal antibody bound PcrV reagent was monitored for 10 minutes in HBS-EP running buffer.
(§3) Kinetic association (kₐ) and dissociation (kd) rate constants were determined by fitting the real-time sensorgrams to a 1:1 binding model using Scrubber 2.0c curve fitting software. Binding dissociation equilibrium constants (KD) and dissociative half-lives (t½) were calculated from the kinetic rate constants as:

[8] = target: T5, full-length PcrV.6xhis; assay: SPR (Biacore T200), mAb captured via anti-human Fc, PcrV injected, 37 C
Protocol: as §2, §3

[9] = target: T1, PcrV (aa136-257).6xhis; assay: SPR (Biacore T200), mAb captured via anti-human Fc, PcrV injected, 25 C
Protocol: as §2, §3

[10] = target: T1, PcrV (aa136-257).6xhis; assay: SPR (Biacore T200), mAb captured via anti-human Fc, PcrV injected, 37 C
Protocol: as §2, §3

Binder	A549 Cytotoxicity Assay (IC50) [1] [nM]	A549 Cytotoxicity Assay (IC50) [2] [nM]	90 nM Ag Bound (RU) [7] [RU]	Kd [7] [nM]	koff [7] [s⁻¹]	kon [7] [M⁻¹ s⁻¹]	t½ [7] [h]	90 nM Ag Bound (RU) [8] [RU]	Kd [8] [nM]	koff [8] [s⁻¹]	kon [8] [M⁻¹ s⁻¹]	t½ [8] [h]	Kd [9] [nM]	koff [9] [s⁻¹]	kon [9] [M⁻¹ s⁻¹]	t½ [9] [h]	Kd [10] [nM]	koff [10] [s⁻¹]	kon [10] [M⁻¹ s⁻¹]	t½ [10] [h]	also measured
B1	10.8	54.3	81	5.16	0.00095	184000	0.203	59.6	9.12	0.00505	554000	0.0383	15	0.0023	153000	0.0833	107	0.011	103000	0.0167	Rabbit RBC Hemolysis Assay (IC50) [3]: 56.4 nM; Rabbit RBC Hemolysis Assay (IC50) [4]: 2.39 nM; EC50 [5]: 0.597 nM; EC50 [6]: 7.44 nM
B2	0.807	17.8	169	0.146	3.9e-05	267000	4.94	141	0.453	0.000196	431000	0.985	0.83	0.000122	147000	1.58	2.42	0.000596	246000	0.323	Rabbit RBC Hemolysis Assay (IC50) [3]: 2.44 nM; Rabbit RBC Hemolysis Assay (IC50) [4]: 1.01 nM; EC50 [5]: 0.696 nM; EC50 [6]: 7.59 nM
B3	6.47	32.9	152	0.0548	1.3e-05	237000	14.8	163	0.092	2.68e-05	293000	7.19	0.285	3.83e-05	133000	5.03	0.595	0.000106	178000	1.82	Rabbit RBC Hemolysis Assay (IC50) [3]: 15.3 nM; Rabbit RBC Hemolysis Assay (IC50) [4]: 4.06 nM; EC50 [5]: 2.12 nM; EC50 [6]: 0.814 nM
B4	0.84	6.37	102	≤ 0.0204	≤ 1e-05	490000	≥ 19.2	80.7	≤ 0.0116	≤ 1e-05	860000	≥ 19.2	0.0408	1.48e-05	367000	13.1	0.0809	4.36e-05	544000	4.41	Rabbit RBC Hemolysis Assay (IC50) [3]: 0.205 nM; Rabbit RBC Hemolysis Assay (IC50) [4]: 0.81 nM; EC50 [5]: 2.28 nM; EC50 [6]: 1.03 nM
B5	0.0333	7.82	140	≤ 0.0274	≤ 1e-05	365000	≥ 19.2	130	0.0197	≤ 1e-05	508000	≥ 19.2	0.0955	2.76e-05	293000	6.97	0.186	8.15e-05	435000	2.36	Rabbit RBC Hemolysis Assay (IC50) [3]: 2.3 nM; Rabbit RBC Hemolysis Assay (IC50) [4]: 5.59 nM; EC50 [5]: 1.96 nM; EC50 [6]: 0.856 nM
B6	–	–	146	2.39	0.000495	207000	0.39	136	3.48	0.000917	263000	0.21	4.28	0.000956	223000	0.202	11.4	0.00245	216000	0.0783	–
